Reference: article doi:10.1101/2023.01.06.522972 (bioRxiv, 2023)

B1: poly-L-proline decamer peptide (peptide)
peptide: PPPPPPPPPP
notes: also called poly-L-proline peptide; poly-proline decamer
B2: Leishmania major profilin, wild type (natural protein)
chain: SWQAYVDDSLIGSGNMHSAAIIGAADGSYWAYGGSYVPQPEEVQHIQKCLSDFSFVQSSGVNIYGVKFFGLQCGTDGDCKYIFFKKGAAGGCIYTTKQAFIVAVYGNPGDTSSLQQDLEKNTAHAVTVNPADCNTTVKRIADYLIKLGY
notes: also called LmProfilin; LmProf-WT

Key:
Conditions in all cases: both partners purified
[1] = molecular target: B2; test: other fluorescence titration
Leishmania major actin [2] = molecular target: T1, Leishmania major actin (Leishmania major, UniProt P45520 2-376); test: ITC
T1 construct: also called LmActin; Leishmania actin

Leishmania major actin [3] = molecular target: T1, Leishmania major actin; test: crystal structure

T1 sequence (P45520 2-376): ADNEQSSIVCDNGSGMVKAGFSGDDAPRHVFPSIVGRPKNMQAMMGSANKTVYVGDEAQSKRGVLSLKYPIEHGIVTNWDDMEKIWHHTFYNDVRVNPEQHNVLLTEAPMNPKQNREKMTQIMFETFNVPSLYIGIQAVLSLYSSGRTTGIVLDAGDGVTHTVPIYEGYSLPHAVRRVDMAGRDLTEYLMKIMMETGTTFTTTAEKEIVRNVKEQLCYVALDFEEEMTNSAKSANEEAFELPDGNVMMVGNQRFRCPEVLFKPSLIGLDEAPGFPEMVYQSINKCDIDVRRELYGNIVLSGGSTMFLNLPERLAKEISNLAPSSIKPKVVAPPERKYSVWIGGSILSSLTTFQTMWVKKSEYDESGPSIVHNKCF

Binder: B1
- Kd [1]: 242 ± 38.4 µM

Binder: B2
- Kd (Leishmania major actin [2]): ~0.08 µM
- stoichiometry N (Leishmania major actin [3]): 1
